Consider seven molecules from patent US20170190787A1 (INSERM INSTITUT NATIONAL DE LA SANT ET DE LA RECHERCHE M …, published 2017).

For test [1], the target named is T1, wild type EGFR on cells (A431 cells; HEK293T or NIH/3T3 cells transfected with wild type ErbB1) (UniProt P00533 25-1210, limits assumed). Put plainly: cell-based or functional assay.
The target of test [2] is T2, EGFR fused to SNAP-tag, expressed on transfected HEK293T cells (UniProt P00533 25-1210, terbium cryptate donor fluorochrome (SNAP-Tb) covalently on the SNAP-tag).
T2 construct: whole, on cells; also called EGFR-ST; ErbB1-ST; not shown: SNAP-tag and FLAG tag (Cisbio plasmid)
Put plainly: KD in the presence of panitumumab as competitor; method not stated for Table 3.

The target of test [3] is T2, EGFR fused to SNAP-tag, expressed on …. Kind of test: KD in the presence of irrelevant sdAb as competitor; method not stated for Table 3.
Test [4] shares this target. Put plainly: HTRF on EGFR-ST cells; KD in the presence of irrelevant sdAb as competitor. In general terms: In TR-FRET formats the signal depends on donor and acceptor labels being close together.
The target of test [5] is T3, wild type EGFR on cells in the presence of EGF (ligand-activated, extended conformation) (UniProt P00533 25-1210; P01133 971-1023).
T3 construct: Receptor-ligand complex as the target: EGFR with EGF added to the cells; also called extended EGFR
Kind of test: flow cytometry on A431 cells, G10-d2 in the presence of EGF. (A flow cytometer gives signals particle by particle.)

Test [6] addresses T2, EGFR fused to SNAP-tag, expressed on …. Kind of test: KD in the presence of m425 as competitor; method not stated for Table 3.
Test [7] has the same target. Put plainly: HTRF on EGFR-ST transfected HEK293T cells, directly d2-labeled sdAb; apparent Kd.
Test [8] has the same target. Kind of test: HTRF on EGFR-ST cells; KD in the presence of E10 as competitor.
Test [9] has the same target. Kind of test: HTRF on EGFR-ST cells; KD in the presence of D10 as competitor.
The target is the same in test [10]. Kind of test: KD in the presence of cetuximab as competitor; method not stated for Table 3.
Test [11] has the same target. Put plainly: HTRF on EGFR-ST transfected HEK293T cells, sdAb detected with anti-His-d2; apparent Kd.
In test [12] the target is T4, ErbB2 fused to SNAP-tag, expressed on transfected HEK293T cells (UniProt P04626 23-1255, donor fluorochrome covalently on the SNAP-tag).
T4 construct: whole, on cells; also called ErbB2-ST; not shown: SNAP-tag and FLAG tag
Put plainly: HTRF on transfected HEK293T cells, anti-His-d2 detection.

Test [13] deals with T5, ErbB3 fused to SNAP-tag, expressed on transfected HEK293T cells (UniProt P21860 20-1342, donor fluorochrome covalently on the SNAP-tag).
T5 construct: whole, on cells; also called ErbB3-ST; not shown: SNAP-tag and FLAG tag
Described as above.

Test [14] concerns the target T6, ErbB4 fused to HALO-Tag, expressed on transfected HEK293T cells (UniProt Q15303 26-1308, donor fluorochrome covalently on the HALO-Tag).
T6 construct: whole, on cells; also called ErbB4-HT; not shown: HALO-Tag and c-myc tag
The test is described as above.

Test [15] deals with T2, EGFR fused to SNAP-tag, expressed on …. Put plainly: HTRF on living cells; comparison value for monovalent D10.
The target of test [16] is T3, wild type EGFR on cells in the presence …. Put plainly: flow cytometry on A431 cells, d2-labeled sdAb with excess EGF.
Test [17] concerns the target T2, EGFR fused to SNAP-tag, expressed on …. Put plainly: KD in the presence of Ab-3 as competitor; method not stated for Table 3.
For test [18] the target is unchanged. Kind of test: HTRF on EGFR-ST cells; KD in the presence of G10 as competitor.
The target is the same in test [19]. Kind of test: KD in the presence of irrelevant sdAb as competitor; method not stated for Table 3 (values of this column equal Table 2, HTRF on EGFR-ST).
The target in test [20] is T1, wild type EGFR on cells (A431 cells; …). Put plainly: flow cytometry on A431 cells, d2-labeled sdAb with large excess of cetuximab.

T6 sequence (Q15303 26-1308): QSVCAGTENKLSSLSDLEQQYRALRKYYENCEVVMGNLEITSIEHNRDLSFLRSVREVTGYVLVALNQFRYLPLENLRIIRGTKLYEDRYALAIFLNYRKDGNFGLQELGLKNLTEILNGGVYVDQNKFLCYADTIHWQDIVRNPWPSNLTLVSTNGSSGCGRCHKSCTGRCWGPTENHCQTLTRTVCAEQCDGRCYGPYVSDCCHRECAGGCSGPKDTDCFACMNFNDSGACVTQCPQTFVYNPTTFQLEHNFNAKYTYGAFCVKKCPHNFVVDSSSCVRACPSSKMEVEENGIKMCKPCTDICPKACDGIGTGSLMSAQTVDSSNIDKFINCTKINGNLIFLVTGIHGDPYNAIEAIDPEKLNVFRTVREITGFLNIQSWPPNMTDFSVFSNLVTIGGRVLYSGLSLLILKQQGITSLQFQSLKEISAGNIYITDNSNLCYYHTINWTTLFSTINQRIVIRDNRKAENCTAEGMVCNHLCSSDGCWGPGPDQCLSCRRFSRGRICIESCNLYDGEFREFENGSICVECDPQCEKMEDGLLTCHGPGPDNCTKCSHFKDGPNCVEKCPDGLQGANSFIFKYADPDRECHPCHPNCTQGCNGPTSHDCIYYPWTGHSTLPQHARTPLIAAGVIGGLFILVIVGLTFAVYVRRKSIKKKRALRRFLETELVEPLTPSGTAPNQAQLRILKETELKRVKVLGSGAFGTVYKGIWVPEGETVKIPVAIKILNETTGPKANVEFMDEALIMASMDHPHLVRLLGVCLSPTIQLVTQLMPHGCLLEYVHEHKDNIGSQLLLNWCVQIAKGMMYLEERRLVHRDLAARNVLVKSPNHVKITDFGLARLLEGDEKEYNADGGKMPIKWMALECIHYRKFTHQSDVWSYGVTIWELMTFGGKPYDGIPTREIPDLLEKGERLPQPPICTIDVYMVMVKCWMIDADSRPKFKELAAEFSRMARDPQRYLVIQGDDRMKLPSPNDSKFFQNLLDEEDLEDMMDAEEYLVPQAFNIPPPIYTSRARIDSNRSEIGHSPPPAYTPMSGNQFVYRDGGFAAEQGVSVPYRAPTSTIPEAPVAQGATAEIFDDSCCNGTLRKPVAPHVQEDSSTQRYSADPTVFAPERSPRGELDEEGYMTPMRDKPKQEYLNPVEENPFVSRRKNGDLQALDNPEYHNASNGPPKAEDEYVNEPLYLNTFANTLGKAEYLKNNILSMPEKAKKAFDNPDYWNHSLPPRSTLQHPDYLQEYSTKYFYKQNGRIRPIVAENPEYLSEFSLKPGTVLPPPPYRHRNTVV

B1: biparatopic single domain antibody D4E (D10 - 4x(G4S) linker - E10) (bispecific antibody)
chain: EVQLQESGGGLVQAGGSLRLSCAVSISRTIFSLYAMEWYRQPPGKQRDLVARIYRSGDTNYADSVKGRFTISRDNAKNTVYLQMNSLKPEDTGVYYCNSPAQDWPWGQGTQVTVSSAAAGGGGSGGGGSGGGGSGGGGSMAQVQLQESGGGLAQAGGSLRLSCAASGRTLSSYDMGWFRQAPGKEREFVTAINWGDLSTYYADSVKGRFTISRDNAKNTVYLQMNSLKPEDTAVYYCAARLRYTVSDPIFSRPDRYNYWGQGTQVTVSSAAAEQKLISEEDLNGAAHHHHHHGS
notes: also called bisdAb D4E
Turning to B1, the “inhibition of EGF-induced EGFR phosphorylation (FIG. 11); concentration against that of cetuximab” value in [1] stood at 100 fold.

B2: d2-labeled anti-EGFR single domain antibody G10 (VHH)
VHH: EVQLVESGGGLVQAGGSLRLSCAASGRTFSNYAMGWFRQAPGKEREFVAGIIWSGSRTYYADPVKGRFTISRDNAKNTVYLQMNSLNVEDTAVYYCAASMGDYDVSLASPRSWGKGTQVTVSS
modifications: d2 fluorochrome (d2-NHS) on lysine residues, positions not given
notes: G10 chemically coupled to the acceptor fluorochrome d2 by NHS chemistry; also called G10-d2; d2-labeled clone G10; not shown: His tag
For B2, the Kd was 27 nM in test [2]; 12 nM in test [3]; 12 nM in [4]; 32 nM in [6]; 87 nM in test [7]; 17 nM in test [8]. Besides, the Kd came out at 6 nM in test [9] and 21 nM in test [10]. Further, the “fold increase of affinity against EGFR without EGF” value in test [5] turned out to be 8 fold.

B3: anti-EGFR single domain antibody G10 (VHH, not shown: small tags and cut ends)
VHH: B2 VHH
notes: Llama VHH produced in E. coli, His-tagged; also called sdAb G10; unlabeled G10
On to B3, for which, in [11], the Kd was 15 nM. In addition, the binding result in test [12], in test [13] and in test [14] was “no binding” throughout.

B4: anti-EGFR single domain antibody D10 (VHH, not shown: small tags and cut ends)
VHH: EVQLVESGGGLVQAGGSLRLSCAVSISRTIFSLYAMEWYRQPPGKQRDLVARIYRSGDTNYADSVKGRFTISRDNAKNTVYLQMNSLKPEDTGVYYCNSPAQDWPWGQGTQVTVSS
notes: Llama VHH produced in E. coli, His-tagged; also called sdAb D10; unlabeled D10
For B4, the Kd was 6 nM in [15] and 7 nM in test [11]. The binding result in test [12], in test [13] and in test [14] was “no binding” each time.

B5: d2-labeled anti-EGFR single domain antibody D10 (VHH)
VHH: B4 VHH
modifications: d2 fluorochrome (d2-NHS) on lysine residues, positions not given
notes: D10 chemically coupled to the acceptor fluorochrome d2 by NHS chemistry; also called D10-d2; d2-labeled clone D10; not shown: His tag
B5: the Kd worked out at 13 nM in test [2]; 7 nM in test [4]; 3 nM in test [17]; 7 nM in test [18]; 7 nM in test [19]; 14 nM in test [6]. Further, the values for the Kd in test [7], in test [8] and in test [10] were 27 nM, 11 nM and 10 nM, respectively. Besides, in [16], the binding result is listed as “no binding”.

B6: d2-labeled anti-EGFR single domain antibody E10 (VHH)
VHH: QVQLQESGGGLAQAGGSLRLSCAASGRTLSSYDMGWFRQAPGKEREFVTAINWGDLSTYYADSVKGRFTISRDNAKNTVYLQMNSLKPEDTAVYYCAARLRYTVSDPIFSRPDRYNYWGQGTQVTVSS
modifications: d2 fluorochrome (d2-NHS) on lysine residues, positions not given
notes: E10 chemically coupled to the acceptor fluorochrome d2 by NHS chemistry; also called E10-d2; E10-D2; not shown: His tag
On to B6, for which the Kd in test [2] came to 70 nM; in [3], 20 nM; in test [4] it was 20 nM; in test [17], 67 nM; in [18], 17 nM; in [7], 106 nM. The Kd amounted to 17 nM in test [9] and 11 nM in test [10]. Further, in test [20], the “fold increase of binding in the presence of cetuximab” value came out at 2 fold. Further, the binding result in test [16] is recorded as “no binding”.

B7: anti-EGFR single domain antibody E10 (VHH, not shown: small tags and cut ends)
VHH: B6 VHH
notes: Llama VHH produced in E. coli, His-tagged; also called sdAb E10; unlabeled E10
Regarding B7, the Kd in [11] is 25 nM. The binding result in [12], in test [13] and in test [14] was “no binding” in each case.
